Measured values from patent US9540424B2, “Serum albumin binding molecules” (BRISTOL-MYERS SQUIBB COMPANY, priority 2010, dated 2017).

Tests used:
[1] = tested on: HEK cells stably expressing human β-klotho; assay: HEK β-Klotho pERK 1/2 assay; type: cell-based; conditions: for Efficacy (%): % of His6-tagged FGF21 maximal activity; for activity in HEK β-klotho stable cells (specificity experiment): same dilutions as in parental HEK cells
Method: FGF21 induces ERK phosphorylation in the presence of β-klotho. Accordingly, the present HEK-β-klotho assay system was constructed to examine the functional activity of the FGF21-SABA fusions in vitro. Specifically, in vitro activity, potency (EC50) and efficacy (as a percentage of maximal activity observed from an FGF21 molecule that is not fused to a SABA), were determined for the SABA1-FGF21v1 (SEQ ID NO: 132) fusion protein, as measured in the HEK β-Klotho expressing stable cell pERK 1/2 assay using the non-fused His-tagged FGF21 (“FGFv1”; SEQ ID NO: 125) as a comparator.
A HEK cell line stably expressing human β-klotho was constructed. The human β-klotho construct encoded the full length protein under the control of a CMV promoter with a C-terminal FLAG tag. HEK 293 cells were transfected with the linearized cDNA using Lipofectamine 2000 (Invitrogen catalog #11668027) following the manufactures protocol using standard techniques. Positive clones were isolated after 14 days of selection in 600 ug/ml (Invitrogen catalog #10131) of geneticin in Dulbecco's Modified Eagle Medium with high glucose containing L-Glutamine, Hepes (Invitrogen catalog #12430054) and 10% FBS (HyClone catalog # SH30071). Positive stable clones were further characterized by Western Blot analysis and p-ERK activation by AlphaScreen (Perkin Elmer catalog # TGRES50K) analysis.
HEK cells stably expressing human β-klotho were plated at 20,000 cells/well in 96 well tissue culture plates in DMEM high glucose media (Gibco) containing 10% (v/v) FBS (Hyclone) and 600 μg/ml G418 (Gibco). The following day, the media was removed and replaced with DMEM high glucose media without serum and the cells were incubated overnight. The morning of the third day the serum free media was removed and the cells were incubated for a total of seven minutes with dilutions of the proteins made in PBS containing 3% (w/v) fatty acid free human serum albumin. Dilutions were tested in triplicate, one well on each of three plates. At the end of the seven minute incubation, the protein dilutions were removed and 100 μl of 1x AlphaScreen lysis buffer (Perkin-Elmer) was added per well and allowed to incubate with shaking for approximately 10-15 minutes. The plates containing the cellular lysates were frozen at −80° C. for at least 30 minutes or until ready to assay. Four μl from each well of thawed cell lysate was analyzed for pERK 1/2 using the Surefire AlphaScreen pERK 1/2 kit (Perkin Elmer) using 384 well white Proxiplates (Perkin Elmer) following the manufacturer's directions. Plates were incubated at room temperature for two hours in the dark and then read on an Envision 2103 Multiplate reader (Perkin Elmer). Data were analyzed using Graph Pad Prism software using a non-linear regression analysis.

[2] = tested on: parental HEK cells, which do not express β-klotho; assay: pERK 1/2 specificity assay in parental HEK cells; type: cell-based, human
Source text: FGF1 was used as a positive control in those experiments.

[3] = Pharmacokinetics of His-tagged FGF21 and SABA-FGF21 fusions in monkeys; type: in vivo, cynomolgus monkeys; conditions: for CL (total body plasma clearance, CLTp) / T½ (terminal half-life) / Vdss (steady-state volume of distribution, Vss) / absolute subcutaneous bioavailability / apparent subcutaneous terminal half-life (T1/2): monkeys; for CL (total body plasma clearance, CLTp) / T½ (terminal half-life) / Vdss (steady-state volume of distribution, Vss): intravenous, His-tagged FGF21 0.5 mg/kg, SABA1-FGF21v1 0.08 mg/kg
Method: (§1) Various in vivo studies were conducted in mice and monkeys to characterize the pharmacokinetics of His-tagged FGF21 and SABA1-FGF21v1. An ELISA-based ligand binding assay was used to measure the His-tagged FGF21 and SABA1-FGF21v1 in all mouse and monkey plasma samples.
(§2) Following subcutaneous administration, His-tagged FGF21 was well absorbed.
(§3) Following subcutaneous administration, SABA1-FGF21v1 was well absorbed.

[4] = Pharmacokinetics of His-tagged FGF21 and SABA1-FGF21v1 in mice; type: in vivo, CD-1 mice; ob/ob mice; conditions: for steady-state volume of distribution (Vss) / terminal half-life (T1/2) / total body plasma clearance (CLTp): CD-1 mice, intravenous, His-tagged FGF21 1 mg/kg, SABA1-FGF21v1 1.6 mg/kg
Method: as §1, §2, §3
SABA1-FGF21v1 was also administered to ob/ob mice at 1 mg/kg subcutaneously after pre-mix with human serum albumin (6 mg/kg).

[5] = Plasma exposure in the ob/ob mouse efficacy study; type: in vivo, ob/ob mice; conditions: His6-tagged FGF21 0.3 mg/kg, SABA1-FGF21v1 1 mg/kg, without HSA; for Plasma Concentration: 3 hours post dose; for Plasma Concentration (ng/ml): […] hours post dose
Method: (§4) Thus, monitoring plasma glucose levels in diabetic ob/ob mice represents one way that the functional activity of the FGF21-SABA fusion proteins can be assessed. Beginning at 8 weeks of age, diabetic ob/ob mice received daily subcutaneous doses for 7 days (n=8 per group). All protocols were approved by the BMS ACUC committee. Fed glucose levels were examined both 24 hr and 3 hr post-dose on day 7 beginning at 8:00 AM. His-tagged FGF21 and SABA1-FGF21v1 were formulated in PBS and dosed at 0.3 mg/kg, and 1.0 mg/kg. respectively.
(§5) To evaluate the efficacy of SABA1-FGF21v1 bound to human albumin, the fusion protein (1 mg/kg) was incubated with a molar excess of human serum albumin (6 mg/kg) and the mixture was injected in an additional group (q.d. s.c. for 7 days). Human serum albumin (6 mg/kg) was used as an additional control group.
The exposure of SABA1-FGF21v1 is greater in the presence of human serum albumin than in its absence.
as §1

[6] = tested on: diabetic ob/ob mice; assay: HbA1c in diabetic ob/ob mice after 14 days of SABA1-FGF21v1 premixed with HSA; type: in vivo, mouse; conditions: for plasma levels: […] hours after the last dose
Method: HbA1c was measured in plasma samples 24 hours after the last dose (see FIG. 19).
SABA1-FGF21v1 plasma levels at the 0.01, 0.1 and 1 mg/kg doses were 3.85, 2.28 and 28.73 ng/ml respectively, 24 hours after the last dose.

[7] = tested on: diabetic ob/ob mice; assay: Plasma glucose lowering in diabetic ob/ob mice, 7 days daily s.c.; type: in vivo, mouse; conditions: day 7; for lowering of plasma glucose compared to the PBS vehicle control: SABA1-FGF21v1 1.0 mg/kg, His-tagged FGF21 0.3 mg/kg s.c. daily; for magnitude of glucose lowering: […] hours post dose
Method: as §4, §5

[8] = cyno, SC, 0.08 mg/kg, N = 3, mean ± SD

B1: SABA1-FGF21v1: SABA1-FGF21 fusion, SEQ ID NO: 132; 293 aa; DNA SEQ ID NO: 184 (protein)
chain: MGVSDVPRDLEVVAATPTSLLISWHSYYEQNSYYRITYGETGGNSPVQEFTVPYSQTTATISGLKPGVDYTITVYAVYGSKYYYPISINYRTEIEKPSQGSGSGSGSGSGSGSPIPDSSPLLQFGGQVRQRYLYTDDAQQTEAHLEIREDGTVGGAADQSPESLLQLKALKPGVIQILGVKTSRFLCQRPDGALYGSLHFDPEACSFRELLLEDGYNVYQSEAHGLPLHLPGNKSPHRDPAPRGPARFLPLPGLPPALPEPPGILAPQPPDVGSSDPLSMVGPSQGRSPSYAS
[1]
  right shift of potency (EC50) relative to the His-tagged FGF21: approximately 15 fold
  activity in HEK β-klotho stable cells (specificity experiment): showed activity
[1]; mean ± std. dev., N ≧4
  Efficacy (%): 62%
[1]; mean ± std. dev., N ≧4, listed as SABAl-FGF21v1
  Efficacy (%): 62 ± 9%
[2]
  stimulation of pERK 1/2 levels in parental HEK cells: neither His-tagged FGF21 nor SABA1-FGF21v1 stimulated pERK 1/2 levels
[3]; cyno, IV, 0.08 mg/kg, N = 2
  AUCtot: 3.621 µM·h
  CLTp: 0.0118 mL/min/kg
  T½: 97 h
  Vss: 0.076 L/kg
[3]; cyno, SC, 0.08 mg/kg
  F (%): 68%
[3]; [8]
  AUCtot: 2.454 ± 0.779 µM·h
  Cmax: 22.4 ± 10.8 nM
  Tmax: 13 ± 9 h
[3]
  CL (total body plasma clearance, CLTp): 0.012 mL/min/kg
  T½ (terminal half-life): 97 h
  Vdss (steady-state volume of distribution, Vss): 0.08 L/kg
  absolute subcutaneous bioavailability: 68%
  apparent subcutaneous terminal half-life (T1/2): 67 h
[4]
  steady-state volume of distribution (Vss): 0.12 L/kg
  terminal half-life (T1/2): 1.9 h
  total body plasma clearance (CLTp): 2.9 mL/min/kg
[4]; mice, subcutaneous
  apparent subcutaneous terminal half-life (T1/2): 1.9 h
[4]; ob/ob mice, 1 mg/kg subcutaneously after pre-mix with human serum albumin (6 mg/kg)
  apparent subcutaneous terminal half-life (T1/2): 9 h
[5]
  Plasma Concentration: 1370 ng/mL
  Plasma Concentration (ng/ml): <LLOQ
[6]; 0.01 mg/kg dose
  plasma levels: 3.85 ng/mL
[6]; 0.01 mg/kg with HSA 6 mg/kg, s.c. q.d. 14 days
  decrease in HbA1c compared to baseline: no decrease
[6]; 0.1 mg/kg dose
  plasma levels: 2.28 ng/mL
[6]; 0.1 mg/kg with HSA 6 mg/kg, s.c. q.d. 14 days, not statistically significant
  decrease in HbA1c compared to baseline: 0.39%
[6]; 1 mg/kg dose
  plasma levels: 28.73 ng/mL
[6]; 1 mg/kg with HSA 6 mg/kg, s.c. q.d. 14 days
  decrease in HbA1c with respect to baseline: 0.9%
[6]; 1 mg/kg with HSA 6 mg/kg, s.c. q.d. 14 days, statistically significant
  vehicle subtracted decrease in HbA1c: 0.94%
[7]; 3 hours post dose, 1 mg/kg with human serum albumin 6 mg/kg, q.d. s.c.
  lowering of plasma glucose compared to the HSA control: 46%
[7]; 3 hours post dose
  lowering of plasma glucose compared to the PBS vehicle control: 29%
[7]; 1.0 mg/kg s.c. daily, without HSA
  magnitude of glucose lowering: 7%
[7]; 1 mg/kg with HSA 6 mg/kg
  magnitude of glucose lowering: 41%

B2: His-tagged FGF21: non-fused His-tagged FGF21 (“FGFv1”; SEQ ID NO: 125) used as a comparator (protein)
chain: MHHHHHHPIPDSSPLLQFGGQVRQRYLYTDDAQQTEAHLEIREDGTVGGAADQSPESLLQLKALKPGVIQILGVKTSRFLCQRPDGALYGSLHFDPEACSFRELLLEDGYNVYQSEAHGLPLHLPGNKSPHRDPAPRGPARFLPLPGLPPALPEPPGILAPQPPDVGSSDPLSMVGPSQGRSPSYAS
modifications: His6 tag
[1]; mean ± std. dev., N ≧4
  Efficacy (%): 100%
[1]; pERK 1/2, in PBS with 3% human serum albumin, mean ± std. dev., N ≧4
  EC50: 7 ± 4 nM
[1]
  activity in HEK β-klotho stable cells (specificity experiment): showed activity
[2]
  stimulation of pERK 1/2 levels in parental HEK cells: neither His-tagged FGF21 nor SABA1-FGF21v1 stimulated pERK 1/2 levels
[3]
  CL (total body plasma clearance, CLTp): 6.4 mL/min/kg
  T½ (terminal half-life): 1.9 h
  Vdss (steady-state volume of distribution, Vss): 1 L/kg
  absolute subcutaneous bioavailability: 65%
  apparent subcutaneous terminal half-life (T1/2): 4.3 h
[4]
  steady-state volume of distribution (Vss): 0.27 L/kg
  terminal half-life (T1/2): 0.5 h
  total body plasma clearance (CLTp): 12 mL/min/kg
[4]; mice, subcutaneous
  absolute subcutaneous bioavailability: ~100%
  apparent subcutaneous terminal half-life (T1/2): 0.6 h
[5]
  Plasma Concentration: 99 ng/mL
  Plasma Concentration (ng/ml): <LLOQ
[7]; 3 hours post dose
  lowering of plasma glucose compared to the PBS vehicle control: comparable
